This experiment concerns the target NoVLPs (Norovirus-like particles) (so in the source). Nature of the experiment: SPR (BIAcore), NoVLPs immobilized, dendrimer injected at 8-240 µM, steady-state fit of the equilibrium average response.

Ends that are not written are not given here.

Usually Kd stands for the concentration at which binding is half-saturated. Take RHFQTHTVPLSL (also: octovalent MAP dendrimer, eight copies on branching lysine core) […8 (the octovalent dendrimer of SEQ ID NO: 1)]: the Kd turned out to be 117 µM.

(Values after US20110020786A1, “PEPTIDE DENDRIMERS: AFFINITY REAGENTS FOR BINDING NOROVIRUSES” (BAYLOR COLLEGE OF MEDICINE, priority 2007, published 2011).)
